Laboratory results published in patent US20230365675A1 (published 2023).
Read-outs that look alike come from different tables or passages of the source.

What was measured:
[1] = biological target: Mutant CD33-GFP M16 (4889AII) on 293FT cells (UniProt P20138); assay: FACS, mutant CD33-GFP on 293FT cells
[2] = biological target: Mutant CD33-GFP JS23 (L23N) on 293FT cells (UniProt P20138); assay: FACS, mutant CD33-GFP on 293FT cells
[3] = biological target: Mutant CD33-GFP JS24 (Q24E) on 293FT cells (UniProt P20138); assay: FACS, mutant CD33-GFP on 293FT cells
Chain of Mutant CD33-GFP JS24 (Q24E) on 293FT cells (UniProt P20138) (P20138 18-364 Q24E): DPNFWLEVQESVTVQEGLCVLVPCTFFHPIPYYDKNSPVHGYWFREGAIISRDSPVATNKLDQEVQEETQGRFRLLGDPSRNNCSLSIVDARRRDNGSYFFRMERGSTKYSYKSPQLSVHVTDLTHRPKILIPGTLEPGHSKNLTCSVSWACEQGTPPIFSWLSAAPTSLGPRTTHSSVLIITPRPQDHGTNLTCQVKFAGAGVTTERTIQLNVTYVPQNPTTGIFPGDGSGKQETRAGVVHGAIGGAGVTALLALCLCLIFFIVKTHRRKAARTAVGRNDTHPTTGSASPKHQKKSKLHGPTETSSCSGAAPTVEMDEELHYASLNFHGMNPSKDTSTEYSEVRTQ

[4] = biological target: Mutant CD33-GFP M15 (Q171A) on 293FT cells (UniProt P20138); assay: FACS, mutant CD33-GFP on 293FT cells
Chain of Mutant CD33-GFP M15 (Q171A) on 293FT cells (UniProt P20138) (P20138 18-364 Q171A): as the sequence (P20138 18-364 Q24E) above, with E7Q, Q154A counted along it

[5] = biological target: Mutant CD33-GFP M19 (348ATAI) on 293FT cells (UniProt P20138); assay: FACS, mutant CD33-GFP on 293FT cells
[6] = biological target: Mutant CD33-GFP M9 (Y49, 50A) on 293FT cells (UniProt P20138); assay: FACS, mutant CD33-GFP on 293FT cells
Chain of Mutant CD33-GFP M9 (Y49, 50A) on 293FT cells (UniProt P20138) (P20138 other isoform, or with tags, fused parts or gaps mutant): as the sequence (P20138 18-364 Q24E) above, with E7Q, Y32A, Y33A counted along it

[7] = biological target: Mutant CD33-GFP M13 (R91E) on 293FT cells (UniProt P20138); assay: FACS, mutant CD33-GFP on 293FT cells
Chain of Mutant CD33-GFP M13 (R91E) on 293FT cells (UniProt P20138) (P20138 18-364 R91E): as the sequence (P20138 18-364 Q24E) above, with E7Q, R74E counted along it

[8] = biological target: Mutant CD33-GFP M12 (G88S) on 293FT cells (UniProt P20138); assay: FACS, mutant CD33-GFP on 293FT cells
Chain of Mutant CD33-GFP M12 (G88S) on 293FT cells (UniProt P20138) (P20138 18-364 G88S): as the sequence (P20138 18-364 Q24E) above, with E7Q, G71S counted along it

[9] = biological target: Mutant CD33-GFP M17 (F21Y) on 293FT cells (UniProt P20138); assay: FACS, mutant CD33-GFP on 293FT cells
Chain of Mutant CD33-GFP M17 (F21Y) on 293FT cells (P20138 18-364 F21Y): as the sequence (P20138 18-364 Q24E) above, with F4Y, E7Q counted along it

[10] = biological target: Mutant CD33-GFP JS28 (S28L) on 293FT cells (UniProt P20138); assay: FACS, mutant CD33-GFP on 293FT cells
Chain of Mutant CD33-GFP JS28 (S28L) on 293FT cells (UniProt P20138) (P20138 18-364 S28L): as the sequence (P20138 18-364 Q24E) above, with E7Q, S11L counted along it

[11] = biological target: Mutant CD33-GFP M10 (Y127A) on 293FT cells (UniProt P20138); assay: FACS, mutant CD33-GFP on 293FT cells
Chain of Mutant CD33-GFP M10 (Y127A) on 293FT cells (UniProt P20138) (P20138 18-364 Y127A): as the sequence (P20138 18-364 Q24E) above, with E7Q, Y110A counted along it

[12] = biological target: Mutant CD33-GFP M4 (R122D) on 293FT cells (UniProt P20138); assay: FACS, mutant CD33-GFP on 293FT cells
Chain of Mutant CD33-GFP M4 (R122D) on 293FT cells (UniProt P20138) (P20138 18-364 R122D): as the sequence (P20138 18-364 Q24E) above, with E7Q, R105D counted along it

[13] = biological target: Mutant CD33-GFP M14 (E170R) on 293FT cells (UniProt P20138); assay: FACS, mutant CD33-GFP on 293FT cells
Chain of Mutant CD33-GFP M14 (E170R) on 293FT cells (UniProt P20138) (P20138 18-364 E170R): as the sequence (P20138 18-364 Q24E) above, with E7Q, E153R counted along it

[14] = biological target: Mutant CD33-GFP JS25 (V25M) on 293FT cells (UniProt P20138); assay: FACS, mutant CD33-GFP on 293FT cells
Chain of Mutant CD33-GFP JS25 (V25M) on 293FT cells (UniProt P20138) (P20138 18-364 V25M): as the sequence (P20138 18-364 Q24E) above, with E7Q, V8M counted along it

[15] = biological target: Mutant CD33-GFP M11 (L78T) on 293FT cells (UniProt P20138); assay: FACS, mutant CD33-GFP on 293FT cells
Chain of Mutant CD33-GFP M11 (L78T) on 293FT cells (UniProt P20138) (P20138 18-364 L78T): as the sequence (P20138 18-364 Q24E) above, with E7Q, L61T counted along it

[16] = biological target: Mutant CD33-GFP N20D on 293FT cells (UniProt P20138); assay: FACS, mutant CD33-GFP on 293FT cells
Chain of Mutant CD33-GFP N20D on 293FT cells (P20138 18-364 N20D): as the sequence (P20138 18-364 Q24E) above, with N3D, E7Q counted along it

[17] = biological target: Mutant CD33-GFP M18 (353AAL) on 293FT cells (UniProt P20138); assay: FACS, mutant CD33-GFP on 293FT cells
[18] = biological target: Mutant CD33-GFP M5 (AEAD), quadruple mutant, on 293FT cells (UniProt P20138); assay: FACS, mutant CD33-GFP on 293FT cells
Chain of Mutant CD33-GFP M5 (AEAD), quadruple mutant, on 293FT cells (UniProt P20138) (P20138 other isoform, or with tags, fused parts or gaps mutant): as the sequence (P20138 18-364 Q24E) above, with W5A, E7Q, H28E, N82A, R105D counted along it

[19] = biological target: Biotinylated CD33 protein (UniProt P20138); assay: Octet competition on biotinylated CD33; competitor 420
Chain of Biotinylated CD33 protein (P20138 18-259 limits assumed): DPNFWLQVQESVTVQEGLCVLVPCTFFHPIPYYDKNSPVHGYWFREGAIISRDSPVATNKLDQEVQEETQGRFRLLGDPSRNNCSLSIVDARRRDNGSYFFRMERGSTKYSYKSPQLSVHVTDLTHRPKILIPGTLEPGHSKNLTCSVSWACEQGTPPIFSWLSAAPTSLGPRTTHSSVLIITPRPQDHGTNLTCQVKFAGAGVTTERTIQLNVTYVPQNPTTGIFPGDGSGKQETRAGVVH

[20] = biological target: Biotinylated CD33 protein (UniProt P20138); assay: Octet competition on biotinylated CD33; competitor 353
[21] = biological target: Biotinylated CD33 protein (UniProt P20138); assay: Octet competition on biotinylated CD33; competitor 416
[22] = biological target: Biotinylated CD33 protein (UniProt P20138); assay: Octet competition on biotinylated CD33; competitor 348
[23] = biological target: Biotinylated CD33 protein (UniProt P20138); assay: Octet competition on biotinylated CD33; competitor 389
[24] = biological target: Biotinylated CD33 protein (UniProt P20138); assay: Octet competition on biotinylated CD33; competitor 413
[25] = biological target: CD33-GFP fusion protein, wild type (WT), on 293FT cells (UniProt P20138); assay: FACS, WT CD33-GFP on 293FT cells
Chain of CD33-GFP fusion protein, wild type (WT), on 293FT cells (P20138 18-364): as the sequence (P20138 18-364 Q24E) above, with E7Q counted along it

[26] = biological target: Biotinylated CD33 protein (UniProt P20138); assay: Octet competition on biotinylated CD33; competitor 424
[27] = biological target: Biotinylated CD33 protein (UniProt P20138); assay: Octet competition on biotinylated CD33; competitor h195
[28] = biological target: Biotinylated CD33 protein (UniProt P20138); assay: Octet competition on biotinylated CD33; competitor 429
[29] = biological target: T1, Mutant CD33-GFP M2 (H45E) on 293FT cells (UniProt P20138 18-364); assay: FACS, mutant CD33-GFP on 293FT cells
T1 construct: whole, on cells; not shown: GFP fused to CD33
T1 sequence (P20138 18-364 H45E): as the sequence (P20138 18-364 Q24E) above, with E7Q, H28E counted along it

[30] = biological target: T2, Mutant CD33-GFP M3 (N99A) on 293FT cells (UniProt P20138 18-364); assay: FACS, mutant CD33-GFP on 293FT cells
T2 construct: whole, on cells; not shown: GFP fused to CD33
T2 sequence (P20138 18-364 N99A): as the sequence (P20138 18-364 Q24E) above, with E7Q, N82A counted along it

[31] = biological target: T3, Mutant CD33-GFP M1 (W22A) on 293FT cells (UniProt P20138 18-364); assay: FACS, mutant CD33-GFP on 293FT cells
T3 construct: whole, on cells; not shown: GFP fused to CD33
T3 sequence (P20138 18-364 W22A): as the sequence (P20138 18-364 Q24E) above, with W5A, E7Q counted along it

[32] = biological target: T4, CD33 on MOLM-13 cells (human, UniProt P20138 18-364); assay: FACS, MOLM-13 cells expressing CD33 against MOLM-13 CD33 knockout
T4 construct: whole, on cells; also called MOLM-13 cell line expressing CD33; wild-type MOLM-13 cells (CD33+)
T4 sequence (P20138 18-364): as the sequence (P20138 18-364 Q24E) above, with E7Q counted along it
Excerpt: A naïve llama phage library was panned and screened to identify single domain antibodies that specifically recognize CD33. A MOLM-13 cell line expressing CD33 was used as a CD33-positive cell line, and a MOLM-13 cell line harboring a knockout of CD33 was used as a CD-33 negative cell line. A purified anti-human CD33 antibody was used as a positive control. Specific binding activity of identified binders was confirmed by FACS. The heavy chain variable region sequences of the identified binders are included herein.

[33] = biological target: Biotinylated CD33 protein (UniProt P20138); assay: Octet competition on biotinylated CD33; competitor 426
[34] = biological target: T5, Mutant CD33-GFP M8 (K52A) on 293FT cells (UniProt P20138 18-364); assay: FACS, mutant CD33-GFP on 293FT cells
T5 construct: whole, on cells; not shown: GFP fused to CD33
T5 sequence (P20138 18-364 K52A): as the sequence (P20138 18-364 Q24E) above, with E7Q, K35A counted along it

[35] = biological target: T6, Mutant CD33-GFP M7 (R98D) on 293FT cells (UniProt P20138 18-364); assay: FACS, mutant CD33-GFP on 293FT cells
T6 construct: whole, on cells; not shown: GFP fused to CD33
T6 sequence (P20138 18-364 R98D): as the sequence (P20138 18-364 Q24E) above, with E7Q, R81D counted along it

[36] = biological target: T7, Mutant CD33-GFP M6 (F43N) on 293FT cells (UniProt P20138 18-364); assay: FACS, mutant CD33-GFP on 293FT cells
T7 construct: whole, on cells; not shown: GFP fused to CD33
T7 sequence (P20138 18-364 F43N): as the sequence (P20138 18-364 Q24E) above, with E7Q, F26N counted along it

[37] = biological target: T8, Mutant CD33-GFP JS23 (L23N) on 293FT cells (UniProt P20138 18-364); assay: FACS, mutant CD33-GFP on 293FT cells
T8 construct: whole, on cells; not shown: GFP fused to CD33
T8 sequence (P20138 18-364 L23N): as the sequence (P20138 18-364 Q24E) above, with L6N, E7Q counted along it

[38] = biological target: T9, Mutant CD33-GFP JS25 (V25M) on 293FT cells (UniProt P20138 18-364); assay: FACS, mutant CD33-GFP on 293FT cells
T9 construct: whole, on cells; not shown: GFP fused to CD33
T9 sequence (P20138 18-364 V25M): as the sequence (P20138 18-364 Q24E) above, with E7Q, V8M counted along it

[39] = biological target: T10, Mutant CD33-GFP JS28 (S28L) on 293FT cells (UniProt P20138 18-364); assay: FACS, mutant CD33-GFP on 293FT cells
T10 construct: whole, on cells; not shown: GFP fused to CD33
T10 sequence (P20138 18-364 S28L): as the sequence (P20138 18-364 Q24E) above, with E7Q, S11L counted along it

[40] = biological target: T11, Mutant CD33-GFP JS24 (Q24E) on 293FT cells (UniProt P20138 18-364); assay: FACS, mutant CD33-GFP on 293FT cells
T11 construct: whole, on cells; not shown: GFP fused to CD33
T11 sequence (P20138 18-364 Q24E): as the sequence (P20138 18-364 Q24E) above

[41] = biological target: T12, Mutant CD33-GFP M12 (G88S) on 293FT cells (UniProt P20138 18-364); assay: FACS, mutant CD33-GFP on 293FT cells
T12 construct: whole, on cells; not shown: GFP fused to CD33
T12 sequence (P20138 18-364 G88S): as the sequence (P20138 18-364 Q24E) above, with E7Q, G71S counted along it

[42] = biological target: T13, Mutant CD33-GFP M14 (E170R) on 293FT cells (UniProt P20138 18-364); assay: FACS, mutant CD33-GFP on 293FT cells
T13 construct: whole, on cells; not shown: GFP fused to CD33
T13 sequence (P20138 18-364 E170R): as the sequence (P20138 18-364 Q24E) above, with E7Q, E153R counted along it

[43] = biological target: T14, Mutant CD33-GFP M11 (L78T) on 293FT cells (UniProt P20138 18-364); assay: FACS, mutant CD33-GFP on 293FT cells
T14 construct: whole, on cells; not shown: GFP fused to CD33
T14 sequence (P20138 18-364 L78T): as the sequence (P20138 18-364 Q24E) above, with E7Q, L61T counted along it

[44] = biological target: T15, Mutant CD33-GFP M13 (R91E) on 293FT cells (UniProt P20138 18-364); assay: FACS, mutant CD33-GFP on 293FT cells
T15 construct: whole, on cells; not shown: GFP fused to CD33
T15 sequence (P20138 18-364 R91E): as the sequence (P20138 18-364 Q24E) above, with E7Q, R74E counted along it

[45] = biological target: T16, Mutant CD33-GFP M15 (Q171A) on 293FT cells (UniProt P20138 18-364); assay: FACS, mutant CD33-GFP on 293FT cells
T16 construct: whole, on cells; not shown: GFP fused to CD33
T16 sequence (P20138 18-364 Q171A): as the sequence (P20138 18-364 Q24E) above, with E7Q, Q154A counted along it

[46] = biological target: Mutant CD33-GFP M16 (4889AII) on 293FT cells (UniProt P20138); assay: FACS, mutant CD33-GFP on 293FT cells; remark: listed apart in the source
[47] = biological target: Mutant CD33-GFP M19 (348ATAI) on 293FT cells (UniProt P20138); assay: FACS, mutant CD33-GFP on 293FT cells; remark: listed apart in the source
[48] = biological target: Mutant CD33-GFP M18 (353AAL) on 293FT cells (UniProt P20138); assay: FACS, mutant CD33-GFP on 293FT cells; remark: listed apart in the source
[49] = biological target: T17, Mutant CD33-GFP M5 (AEAD), quadruple mutant, on 293FT cells (UniProt P20138 18-364); assay: FACS, mutant CD33-GFP on 293FT cells
T17 construct: whole, on cells; substitutions left empty; not shown: GFP fused to CD33
T17 sequence (P20138 other isoform, or with tags, fused parts or gaps mutant): as the sequence (P20138 18-364 Q24E) above, with W5A, E7Q, H28E, N82A, R105D counted along it

[50] = biological target: T18, Mutant CD33-GFP M4 (R122D) on 293FT cells (UniProt P20138 18-364); assay: FACS, mutant CD33-GFP on 293FT cells
T18 construct: whole, on cells; not shown: GFP fused to CD33
T18 sequence (P20138 18-364 R122D): as the sequence (P20138 18-364 Q24E) above, with E7Q, R105D counted along it

[51] = biological target: T19, Mutant CD33-GFP M10 (Y127A) on 293FT cells (UniProt P20138 18-364); assay: FACS, mutant CD33-GFP on 293FT cells
T19 construct: whole, on cells; not shown: GFP fused to CD33
T19 sequence (P20138 18-364 Y127A): as the sequence (P20138 18-364 Q24E) above, with E7Q, Y110A counted along it

[52] = biological target: T20, Mutant CD33-GFP M9 (Y49, 50A) on 293FT cells (UniProt P20138 18-364); assay: FACS, mutant CD33-GFP on 293FT cells
T20 construct: whole, on cells; Read as the double mutant Y49A + Y50A; not shown: GFP fused to CD33
T20 sequence (P20138 other isoform, or with tags, fused parts or gaps mutant): as the sequence (P20138 18-364 Q24E) above, with E7Q, Y32A, Y33A counted along it

Chain of Mutant CD33-GFP JS23 (L23N) on 293FT cells (UniProt P20138) (P20138 18-364 L23N): as the sequence (P20138 18-364 Q24E) above, with L6N, E7Q counted along it

B1: sdCD33_11 (VHH)
VHH: AVQLVESGGGLVQAGGSLRLSCAASGDTFANYAMGWFRQAPGKEREFVAAISWSDSSTHYADSVKGRFTIPRDNAKNAVYLQMDQLKPEDMAVYYCYAYIRGVGEVRYVDYWGQGTQVTVSS
notes: sdAb from a naive llama phage library; also called 430; sdAb430
- FACS binding data [1]: 97.4
- FACS binding data [2]: 99.2
- FACS binding data [3]: 99.6
- FACS binding data [4]: 97.2
- FACS binding data [5]: 99.8
- FACS binding data [6]: 1.01
- FACS binding data [7]: 98.7
- FACS binding data [8]: 98.5
- FACS binding data [9]: 96.1
- FACS binding data [10]: 99.7
- FACS binding data [11]: 94.2
- FACS binding data [12]: 98.4
- FACS binding data [13]: 97.4
- FACS binding data [14]: 99.7
- FACS binding data [15]: 73.8
- FACS binding data [16]: 97.5
- FACS binding data [17]: 99.4
- FACS binding data [18]: 0.79
- Octet signal [19]: -0.169
- Octet signal [20]: -0.112
- Octet signal [21]: -0.268
- Octet signal [22]: -0.212
- Octet signal [23]: 0.0436
- Octet signal [24]: -0.108
- FACS binding data [25]: 97.6
- Octet signal [26]: -0.377
- Octet signal [27]: 0.136
- Octet signal [28]: -0.29
- FACS binding data [29]: 99.3
- FACS binding data [30]: 99.3
- FACS binding data [31]: 99.4
- binding result [32]: binds
- Octet signal [33]: -0.227
- FACS binding data [34]: 97.1
- FACS binding data [35]: 98.5
- FACS binding data [36]: 98.8

B2: hu195 (antibody, V domains shown)
VH: QVQLVQSGAEVKKPGSSVKVSCKASGYTFTDYNMHWVRQAPGQGLEWIGYIYPYNGGTGYNCIKFKSKATITADESTNTAYMELSSLRSEDTAVYYCARGRPAMDYWGQGTLVTVSS
VL: DIQMTQSPSSLSASVGDRVTITCRASESVDNYGISFMNWFQQKPGKAPKLLIYAASNQGSGVPSRFSGSGSGTDFTLTISSLQPDDFATYYCQQSKEVPWTFGQGTKVEIK
- FACS binding data [37]: 99.4
- FACS binding data [38]: 99.8
- FACS binding data [39]: 99.9
- FACS binding data [40]: 72.5
- FACS binding data [41]: 98.3
- FACS binding data [42]: 98.2
- FACS binding data [43]: 86.8
- FACS binding data [44]: 98.1
- FACS binding data [45]: 97.6
- FACS binding data [46]: 97.2
- FACS binding data [47]: 99.7
- FACS binding data [48]: 99.4
- FACS binding data [29]: 99.6
- FACS binding data [30]: 99.5
- FACS binding data [49]: 0.26
- FACS binding data [31]: 99.3
- FACS binding data [50]: 99.6
- FACS binding data [51]: 92.5
- FACS binding data [52]: 94.4
- FACS binding data [34]: 99.5
- FACS binding data [35]: 98.4
- FACS binding data [36]: 99.4
